# Measurements taken from the supplement of paper PMC10567573.
# ± gives the standard deviation.
# Experiment: protein stability index of a GFP-peptide fusion (GPS, HEK-293T) (PSI 1-6); higher = more stable
# [1] = treatment: DMSO, c terminus: a fixed tail appended
# [2] = treatment: MLN4924 1 uM, 8 h, c terminus: a fixed tail appended
# 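Further: 24-mer peptide tiles fused after GFP, lentivirally expressed, FACS-sorted into six equal bins by GFP/DsRed ratio, decoded by Illumina sequencing, PSI is the read-weighted mean bin number.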
Sequence,protein stability index [1],protein stability index [2],"protein stability index (treatment: DMSO, c terminus: native)","protein stability index (treatment: MLN4924 1 uM, 8 h, c terminus: native)"
AAALKCQLCEKAPKEATVMCEQCD [TRIM9],5.33 ± 0.22,5.4 ± 0.15,–,–
AAETAAQGPTPRYFTWDEVAQRSG [FADS1],4.23 ± 0.23,4.11 ± 0.27,–,–
AAETRGAVEGAARTTPSRREITGV [PALM],4.86 ± 0.36,5.07 ± 0.18,–,–
AAQDRPMSPGDCPPETTETPKCSS [YJU2B],5.54 ± 0.24,5.3 ± 0.34,–,–
AARVGLLQYSTQVHTEFTLRNFNS [MATN2],2.37 ± 0.19,2.19 ± 0.28,–,–
ACAQLATGAACRLVEAVLSGEVLN [HDAC6],2.44 ± 0.53,2.65 ± 0.4,–,–
ACDLQPCPTEPPDDSCQDQPGTNC [ADAMTSL2],5.49 ± 0.34,5.51 ± 0.39,–,–
ACLVSCFQQLMVETCSCGYYLHPL [SCNN1D],2.91 ± 0.17,3.21 ± 0.19,–,–
ADEGSRNSRFQMLFTSFQEPPCEG [NETO1],3.98 ± 0.094,4.17 ± 0.22,–,–
ADISMIGQFGVGFYSAYLVAEKVV [HSP90AB1],–,2.86 ± 0.44,–,–
ADWLGLKDEDLDLFPASPTREAHR [FBF1],4.77 ± 0.21,4.61 ± 0.12,–,–
AEEIRIKGKYNISSEDYRQLELVI [KCNK9],2.25 ± 0.2,2.05 ± 0.38,–,–
AEEWYKSKYADLSDAANRNHEALR [PRPH],4.27 ± 0.21,4.43 ± 0.35,–,–
AELLKKQEELNRKAEELDRREREL [SCAMP3],5.43 ± 0.26,5.44 ± 0.33,–,–
AEQRGDNALKDARAKLDELEGALH [KRT71],5.16 ± 0.2,5.37 ± 0.29,–,–
AFEAARDLDACALVRGHRRRLLRR [ZSWIM9],4.5 ± 0.2,4.45 ± 0.21,–,–
AGARKIYAVEASTMAQHAEVLVKS [CARM1],3.79 ± 0.39,4.07 ± 0.58,–,–
AGFDAARGDPLGGCQVSPEGYAHL [HDAC6],3.75 ± 0.26,3.78 ± 0.2,–,–
AGGFSIRNQKGEQVFRLAFRSGAL [MYORG],1.77 ± 0.2,2.28 ± 0.39,–,–
AGIMLLALVCLLSCLLPSSEAKLY [SPACA3],2.94 ± 0.12,3.25 ± 0.48,–,–
AGLASGLLNQQSLKRSANQMGVSA [MED27],3.62 ± 0.06,3.69 ± 0.096,–,–
AGTGASRSSHSSDSGGSDVDLDPT [ELF3],5.59 ± 0.23,5.51 ± 0.22,–,–

Sequence,protein stability index [1],protein stability index [2],"protein stability index (treatment: DMSO, c terminus: native)","protein stability index (treatment: MLN4924 1 uM, 8 h, c terminus: native)"
AHKMKFSDLFSLAEEYEDSSTKPP [INTS3],4.22 ± 0.17,4.17 ± 0.1,–,–
AIDRNYVPGKSLAVSCPGWSAVA [SNX12],–,–,2.73 ± 0.33,1.97 ± 0.31
AIVQQVPAPSRMQMPQGNPLLLSH [SNX8],2.72 ± 0.38,2.7 ± 0.31,–,–
AKADTTSTVTPVPGQEKGSALEGR [EHMT1],5.3 ± 0.24,5.38 ± 0.12,–,–
AKGSLGTQIGFADLMGVLTKGVRE [FEM1A],2.49 ± 0.19,2.4 ± 0.3,–,–
AKGWGPCYSRQFITSCPCWLEILL [SMAD6],2.69 ± 0.29,2.8 ± 0.42,–,–
AKHLIASMLSKNPEDRPSLDDIIR [PLK2],2.61 ± 0.38,2.79 ± 0.24,–,–
AKQQKFIKAVTHQVKFGQQNPRQV [ZC3H15],3.19 ± 0.22,3.4 ± 0.3,–,–
ALCLEVRPTYFEMKNEKLLSKASE [RNF180],3.51 ± 0.21,3.67 ± 0.4,–,–
ALEKLRSEMEEEKRQAVNKAVANM [ZMYND11],4.42 ± 0.38,4.34 ± 0.36,–,–
ALGDIREVQKLVESGVDVNSQNEV [ANKRD40],5.28 ± 0.3,5.24 ± 0.29,–,–
ALLPSLSHCSQLTTLSFYGNSISI [PRAME],3.14 ± 0.66,3.14 ± 0.35,–,–
ALPVPVIVSNFNYFYHRETENEEQ [KCNA4],3.54 ± 0.15,3.57 ± 0.17,–,–
ALTGHLRTHSVIKEETNHSEMAED [IKZF1],5.38 ± 0.23,5.13 ± 0.31,–,–
ANKYLVEDVLLLNFEEMRALLDSL [KLHL14],2.34 ± 0.21,2.37 ± 0.19,–,–
APDRATAVATASRLGPYVLLEPEE [TRIB3],5.04 ± 0.31,5.04 ± 0.24,–,–
APMDAPRYQHGIAVIGNFLYVVGG [KLHL13],2.18 ± 0.36,2.25 ± 0.25,–,–
APSKKAAKDPGKGELPNHPKPAGG [FBF1],5.1 ± 0.43,5.53 ± 0.24,–,–
AQDDDRLREERKKAKKNKDKYVGV [CLINT1],5.27 ± 0.17,5.48 ± 0.38,–,–
AQQFALMAPLLFNGCRSGEIFAID [DCAF4],2.6 ± 0.72,2.64 ± 0.34,–,–
AQSLPGPCAAAREGRLERRECGLA [IRX6],4.42 ± 0.2,4.53 ± 0.38,–,–
ASADRTVIVWDGDTTRQVQRISCF [WDR41],2.25 ± 0.27,2.58 ± 0.26,–,–

Sequence,protein stability index [1],protein stability index [2],"protein stability index (treatment: DMSO, c terminus: native)","protein stability index (treatment: MLN4924 1 uM, 8 h, c terminus: native)"
ASLTIPLVPETEDDRKLAALLKFH [YJU2B],3.05 ± 0.24,3.41 ± 0.24,–,–
ASPRRLSNVSSSGSINLLESPQLA [MAP2],4.2 ± 0.2,4.12 ± 0.15,–,–
ASREENQAGPEATTSDPQDLDMKK [PALM],5.53 ± 0.46,5.43 ± 0.42,–,–
ATITSRGSSLSGSLCSLLESQSTS [LURAP1L],3.49 ± 0.28,3.6 ± 0.32,–,–
ATLTTTSATSKLIHPDEDISLEER [ZNF207],5.23 ± 0.064,5.35 ± 0.27,–,–
AVADSIPQVLADLGSFESPANSET [PCDHGA10],5.07 ± 0.54,5.35 ± 0.2,–,–
AVFAVSAVVHEYALAVCLSFFYPV [SOAT1],3.23 ± 0.37,3.07 ± 0.23,–,–
AVGNSSGSGQNEESPRKRKKATEA [FBXO28],4.95 ± 0.34,5.29 ± 0.27,–,–
AVKLYNSGDFRSSTEDMERALSEY [P3H4],4.57 ± 0.4,4.14 ± 0.26,–,–
AVLEYLYTGMFTSSPDLDDMKLII [RHOBTB2],2.68 ± 0.6,2.53 ± 0.3,–,–
AVPEDLADRLVRVHGDPAVWWVSQ [FUT8],2.61 ± 0.29,2.65 ± 0.039,–,–
AVSDGRHMFVWGGYKSNQVRGLYD [KLHDC2],2.28 ± 0.58,2.27 ± 0.51,–,–
AVTDLLGRRQRKSEKRRDPPNGPN [WASL],4.06 ± 0.14,4.31 ± 0.29,–,–
AVVALTQDQPSEAATGGATLAQTI [HDAC6],4.27 ± 0.33,4.38 ± 0.24,–,–
AVVAVDRQAIFPDTWTLTEEHGLQ [PXN],3.35 ± 0.51,3.35 ± 0.34,–,–
AWNSPFYNCGEESLQSCMHFQPNS [NANOGP8],2.41 ± 0.13,2.43 ± 0.41,–,–
AYQEVFKPENISLRNKLRELCVKL [SMG5],2.24 ± 0.23,2.17 ± 0.35,–,–
CFITLTTIGFGDYVALQTKGALQK [KCNK9],2.97 ± 0.63,2.67 ± 0.59,–,–
CIYSEVMEALDLQPGLSFLNLGSG [PCMTD2],2.29 ± 0.34,2.33 ± 0.44,–,–
CMVEIVQKYDPDKDEWHKVFDLPE [KLHL13],2.52 ± 0.27,2.59 ± 0.24,–,–
CPPLPAGVSFHIDSAELEPGSQTA [FBXO34],5.03 ± 0.4,5.09 ± 0.2,–,–
